From patent publication US20240270874A1 (JIANGSU HENGRUI PHARMACEUTICALS, published 2024)

B1: hAb99-13 (antibody, human IgG1, kappa, L234A L235A, V domains shown)
VH: EVQLVQSGAEVKKPGASVKVSCKASGYTFTNYGINWVRQAPGQRLEWMGYIYIGNVDIEYNAKFKGRVTITSDTSASTAYMELSSLRSEDTAVYYCARGRGLGHFDVWGQGTTVTVSS
VL: DIQMTQSPSSLSASVGDRVTITCRASKSISKFLAWFQQKPGKTNKLLIYSGSTLQSGVPSRFSGSGSGTDFTLTISSLQPEDFATYYCQQHNEYPWTFGGGTKVEIKR
notes: human IgG1 (L234A, L235A) / kappa
B2: hAb-23 (antibody, human IgG1, kappa, L234A L235A, V domains shown)
VH: QVQLVQSGAEVKKPGSSVKVSCKASGGTFSSYAISWVRQAPGQGLEWMGGIIPIFGTANYAQKFQGRVTITADESTSTAYMELSSLRSEDTAVYYCARELVSYYYGMDVWGQGTMVTVSS
VL: not shown
notes: from a human natural phage library; human IgG1 (L234A, L235A) / kappa; also called fully human antibody hAb-23
B3: hAb18-8 (antibody, human IgG1, kappa, L234A L235A, V domains shown)
VH: EVQLVQSGAEVKKPGASVKVSCKASGYTFTDYAMHWVRQAPGQRLEWMGVISTYSGTTNYNQNFKGRVTITVDKSASTAYMELSSLRSEDTAVYYCARSGPLDYWGQGTTVTVSS
VL: ENVLTQSPDFQSVTPKEKVTITCRATSSVSSSYLHWYQQKPDQSPKLWIYSTSQLASGVPSRFSGSGSGTDYTLTINSLEAEDAATYYCQQYSGYPLTFGQGTKLEIKR
notes: as for B1

Target: human FGFR1c on cells (human, UniProt P11362 22-822)
Assay: cell-based or functional assay

Chain of human FGFR1c on cells (P11362 22-822): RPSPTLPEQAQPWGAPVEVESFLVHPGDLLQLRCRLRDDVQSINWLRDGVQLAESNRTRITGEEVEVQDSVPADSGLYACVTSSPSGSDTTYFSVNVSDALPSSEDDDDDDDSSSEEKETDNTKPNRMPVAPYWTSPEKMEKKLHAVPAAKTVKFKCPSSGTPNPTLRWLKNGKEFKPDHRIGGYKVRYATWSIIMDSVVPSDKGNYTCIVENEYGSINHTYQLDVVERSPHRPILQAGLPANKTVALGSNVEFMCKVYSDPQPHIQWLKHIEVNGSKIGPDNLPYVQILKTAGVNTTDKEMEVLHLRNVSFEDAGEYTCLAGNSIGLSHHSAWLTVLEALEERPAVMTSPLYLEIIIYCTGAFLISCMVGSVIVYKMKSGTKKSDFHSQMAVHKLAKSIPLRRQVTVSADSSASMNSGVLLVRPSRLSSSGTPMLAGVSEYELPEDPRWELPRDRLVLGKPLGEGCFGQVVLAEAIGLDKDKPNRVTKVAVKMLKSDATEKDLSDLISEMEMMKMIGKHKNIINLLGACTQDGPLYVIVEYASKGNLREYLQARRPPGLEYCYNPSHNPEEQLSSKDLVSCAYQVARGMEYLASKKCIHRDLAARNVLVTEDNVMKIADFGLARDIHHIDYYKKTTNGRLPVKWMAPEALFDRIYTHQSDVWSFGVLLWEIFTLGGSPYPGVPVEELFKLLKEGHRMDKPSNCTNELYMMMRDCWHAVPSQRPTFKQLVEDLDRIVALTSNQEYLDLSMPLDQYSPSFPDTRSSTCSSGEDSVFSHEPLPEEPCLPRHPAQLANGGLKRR

Question: For B1, which “Activation fold, SRE-Luc2P reporter in HEK293-hFGFR1c cells” value (“Activation fold, SRE-Luc2P reporter” below) is on record?
Answer: 0.77 fold

Question: B2 was tested. Which “Activation fold, SRE-Luc2P reporter” value did it give?
Answer: 0.86 fold

Question: For B3, which “Activation fold, SRE-Luc2P reporter” value is on record?
Answer: 0.81 fold

Target: human KLB & human FGFR3c on L6 cells (human, UniProt Q86Z14 1-1044; P22607 23-806)
Assay: cell-based or functional assay

Chain of human KLB & human FGFR3c on L6 cells (Q86Z14 whole entry, chain 1 of 2): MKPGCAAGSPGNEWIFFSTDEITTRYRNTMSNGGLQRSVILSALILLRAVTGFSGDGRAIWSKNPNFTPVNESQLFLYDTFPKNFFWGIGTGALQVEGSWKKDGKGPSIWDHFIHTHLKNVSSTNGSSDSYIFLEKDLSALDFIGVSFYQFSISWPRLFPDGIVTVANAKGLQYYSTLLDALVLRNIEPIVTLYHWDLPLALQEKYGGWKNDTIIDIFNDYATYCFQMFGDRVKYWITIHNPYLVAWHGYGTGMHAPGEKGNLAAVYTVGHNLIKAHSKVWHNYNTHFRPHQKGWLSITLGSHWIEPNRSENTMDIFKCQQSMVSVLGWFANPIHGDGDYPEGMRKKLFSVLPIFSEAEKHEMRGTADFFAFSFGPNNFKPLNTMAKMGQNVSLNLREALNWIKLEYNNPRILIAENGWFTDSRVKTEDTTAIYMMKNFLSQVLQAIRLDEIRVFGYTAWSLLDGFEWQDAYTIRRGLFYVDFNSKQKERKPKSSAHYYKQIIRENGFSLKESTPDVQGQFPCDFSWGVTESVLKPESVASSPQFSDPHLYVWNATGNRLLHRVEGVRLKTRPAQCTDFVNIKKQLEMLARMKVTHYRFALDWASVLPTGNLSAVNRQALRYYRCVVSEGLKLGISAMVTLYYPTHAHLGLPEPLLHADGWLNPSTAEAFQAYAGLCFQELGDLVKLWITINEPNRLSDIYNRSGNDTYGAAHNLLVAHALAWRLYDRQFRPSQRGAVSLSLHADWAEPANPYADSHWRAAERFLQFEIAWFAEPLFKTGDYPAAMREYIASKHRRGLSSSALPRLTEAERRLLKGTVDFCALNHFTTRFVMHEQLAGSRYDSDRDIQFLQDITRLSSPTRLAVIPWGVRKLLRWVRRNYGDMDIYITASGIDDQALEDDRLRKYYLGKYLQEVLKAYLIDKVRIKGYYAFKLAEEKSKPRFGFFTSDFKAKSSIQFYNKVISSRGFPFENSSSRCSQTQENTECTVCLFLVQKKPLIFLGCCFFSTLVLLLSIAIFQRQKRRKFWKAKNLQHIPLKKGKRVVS
Chain of human KLB & human FGFR3c on L6 cells (P22607 23-806, chain 2 of 2): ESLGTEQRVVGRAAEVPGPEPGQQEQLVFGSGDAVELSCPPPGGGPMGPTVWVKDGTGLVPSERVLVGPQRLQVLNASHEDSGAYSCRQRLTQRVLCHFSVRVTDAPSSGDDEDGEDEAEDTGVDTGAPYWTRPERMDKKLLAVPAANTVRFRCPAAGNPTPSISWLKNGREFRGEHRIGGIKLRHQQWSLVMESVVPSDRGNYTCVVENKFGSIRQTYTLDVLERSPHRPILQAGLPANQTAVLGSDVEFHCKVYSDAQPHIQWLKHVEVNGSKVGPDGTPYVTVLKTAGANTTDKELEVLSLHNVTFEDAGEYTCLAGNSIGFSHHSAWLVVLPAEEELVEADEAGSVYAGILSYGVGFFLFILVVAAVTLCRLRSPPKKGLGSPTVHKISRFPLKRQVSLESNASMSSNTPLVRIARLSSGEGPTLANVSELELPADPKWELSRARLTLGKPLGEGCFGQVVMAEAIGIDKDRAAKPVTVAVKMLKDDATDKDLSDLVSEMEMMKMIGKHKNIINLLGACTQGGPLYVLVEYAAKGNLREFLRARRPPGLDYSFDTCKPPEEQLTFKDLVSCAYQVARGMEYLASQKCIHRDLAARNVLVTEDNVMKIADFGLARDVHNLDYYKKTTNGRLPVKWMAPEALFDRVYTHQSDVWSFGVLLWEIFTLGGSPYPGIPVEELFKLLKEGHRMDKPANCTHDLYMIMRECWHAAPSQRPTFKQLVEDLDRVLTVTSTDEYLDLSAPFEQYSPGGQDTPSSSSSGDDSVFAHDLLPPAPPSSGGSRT

Question: How did the “Activation fold, pERK/total ERK in L6-hKLB&hFGFR3c cells” value turn out when B1 was run?
Answer: 4.95 fold

Question: For B2, which “Activation fold, pERK/total ERK in L6-hKLB&hFGFR3c cells” value is on record?
Answer: 1.08 fold

Question: B3 was tested. Which “Activation fold, pERK/total ERK in L6-hKLB&hFGFR3c cells” value did it give?
Answer: 1.41 fold

Target: human KLB & human FGFR4 on L6 cells (human, UniProt Q86Z14 1-1044; P22455 22-802)
Assay: cell-based or functional assay

Chain of human KLB & human FGFR4 on L6 cells (Q86Z14 whole entry, chain 1 of 2): as the sequence (Q86Z14 whole entry, chain 1 of 2) above
Chain of human KLB & human FGFR4 on L6 cells (P22455 22-802, chain 2 of 2): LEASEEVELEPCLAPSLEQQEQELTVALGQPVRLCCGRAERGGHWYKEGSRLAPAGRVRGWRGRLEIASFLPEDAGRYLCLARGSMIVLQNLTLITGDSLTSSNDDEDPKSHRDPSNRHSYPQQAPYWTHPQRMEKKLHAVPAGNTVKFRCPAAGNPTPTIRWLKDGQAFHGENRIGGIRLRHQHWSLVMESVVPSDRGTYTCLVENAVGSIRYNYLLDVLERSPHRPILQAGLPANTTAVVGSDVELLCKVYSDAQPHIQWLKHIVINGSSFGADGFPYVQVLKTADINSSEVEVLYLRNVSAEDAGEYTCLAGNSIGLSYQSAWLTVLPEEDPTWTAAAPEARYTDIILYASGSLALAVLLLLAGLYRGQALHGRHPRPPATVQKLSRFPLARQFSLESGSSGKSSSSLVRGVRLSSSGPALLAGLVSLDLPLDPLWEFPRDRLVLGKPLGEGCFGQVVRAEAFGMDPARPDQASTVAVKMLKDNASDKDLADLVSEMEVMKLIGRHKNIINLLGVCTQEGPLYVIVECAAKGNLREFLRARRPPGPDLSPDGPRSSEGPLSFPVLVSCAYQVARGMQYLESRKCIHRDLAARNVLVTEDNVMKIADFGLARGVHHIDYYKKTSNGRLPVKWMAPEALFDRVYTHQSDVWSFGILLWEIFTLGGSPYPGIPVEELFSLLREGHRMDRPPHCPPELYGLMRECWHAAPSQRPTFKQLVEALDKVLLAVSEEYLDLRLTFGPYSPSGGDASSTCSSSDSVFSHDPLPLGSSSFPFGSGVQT

Question: B1 was tested. Which “Activation fold, pERK/total ERK in L6-hKLB&hFGFR4 cells” value did it give?
Answer: 1.54 fold

Question: With B2 as the binder, how does the “Activation fold, pERK/total ERK in L6-hKLB&hFGFR4 cells” value read?
Answer: 0.91 fold

Question: For B3, which “Activation fold, pERK/total ERK in L6-hKLB&hFGFR4 cells” value is on record?
Answer: 0.98 fold

Target: T1, hKLB (R&D, Cat. # 5889-KB) (human, UniProt Q86Z14 53-997, limits assumed)
T1 construct: bought soluble protein; also called KLB protein; human KLB
T1 sequence (looked up): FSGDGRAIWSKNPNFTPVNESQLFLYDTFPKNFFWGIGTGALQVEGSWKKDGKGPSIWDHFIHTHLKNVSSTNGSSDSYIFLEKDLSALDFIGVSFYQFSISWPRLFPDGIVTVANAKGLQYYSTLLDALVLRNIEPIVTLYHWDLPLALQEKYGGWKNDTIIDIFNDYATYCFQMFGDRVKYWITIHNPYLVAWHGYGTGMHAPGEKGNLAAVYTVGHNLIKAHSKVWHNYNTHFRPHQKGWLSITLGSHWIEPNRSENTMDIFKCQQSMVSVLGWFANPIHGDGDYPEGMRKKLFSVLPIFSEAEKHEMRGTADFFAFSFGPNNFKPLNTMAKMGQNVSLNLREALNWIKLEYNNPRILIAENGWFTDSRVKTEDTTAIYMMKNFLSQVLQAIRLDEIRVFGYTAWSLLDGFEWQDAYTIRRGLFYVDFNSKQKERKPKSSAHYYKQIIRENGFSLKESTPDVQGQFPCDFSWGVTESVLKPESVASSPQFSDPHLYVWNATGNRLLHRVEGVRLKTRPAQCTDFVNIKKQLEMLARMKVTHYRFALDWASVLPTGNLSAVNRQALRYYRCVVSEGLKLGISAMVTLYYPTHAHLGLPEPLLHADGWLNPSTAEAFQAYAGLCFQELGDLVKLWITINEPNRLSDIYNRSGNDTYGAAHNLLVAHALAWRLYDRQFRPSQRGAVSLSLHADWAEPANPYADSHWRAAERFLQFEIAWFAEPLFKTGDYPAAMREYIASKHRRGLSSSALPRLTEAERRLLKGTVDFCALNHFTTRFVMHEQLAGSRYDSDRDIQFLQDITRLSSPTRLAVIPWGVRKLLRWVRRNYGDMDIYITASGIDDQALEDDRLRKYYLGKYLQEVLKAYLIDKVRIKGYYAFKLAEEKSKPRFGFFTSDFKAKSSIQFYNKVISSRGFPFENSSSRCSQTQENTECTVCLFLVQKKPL
Assay: BLI (Octet HTX) competition; KLB+antibody premix on SA sensor; competitor: immobilised Bio-FGF19
Protocol: Bio-FGF21/Bio-FGF19 (obtained by subjecting FGF21 and FGF19 to Biotin labeling with a Biotin Labeling Kit-NH2 (available from DOJINDO Molecular technologies Inc., LK03), wherein FGF21 is set forth in SEQ ID NO: 76 and FGF19 is set forth in SEQ ID NO: 77) was immobilized to an SA sensor (incubation for 80 s) at a concentration of 2 μg/mL, and the sensor was then transferred to a sample well containing KLB (R&D, 5889-KB-1 mg) or containing KLB+antibody premix (pre-incubation for at least 15 min) for 180 s of binding. The reaction signals were detected in real time using the ForteBio OCTET HTX instrument to obtain a binding curve.

Question: B1 was tested. Which “binding signal of KLB to Bio-FGF19, % of KLB alone” value (shortened to “binding signal … % of KLB alone”) did it give?
Answer: 99%

Question: Which “binding signal … % of KLB alone” value does the source give for B2 here?
Answer: 99%

Question: With B3 as the binder, how does the “binding signal … % of KLB alone” value read?
Answer: 101%

Target: T2, cynomolgus monkey KLB on CHOK1-cynoKLB cells (cynomolgus monkey, UniProt A0A2K5WB58 1-1044)
T2 construct: whole, on cells; also called monkey KLB antigen
T2 sequence: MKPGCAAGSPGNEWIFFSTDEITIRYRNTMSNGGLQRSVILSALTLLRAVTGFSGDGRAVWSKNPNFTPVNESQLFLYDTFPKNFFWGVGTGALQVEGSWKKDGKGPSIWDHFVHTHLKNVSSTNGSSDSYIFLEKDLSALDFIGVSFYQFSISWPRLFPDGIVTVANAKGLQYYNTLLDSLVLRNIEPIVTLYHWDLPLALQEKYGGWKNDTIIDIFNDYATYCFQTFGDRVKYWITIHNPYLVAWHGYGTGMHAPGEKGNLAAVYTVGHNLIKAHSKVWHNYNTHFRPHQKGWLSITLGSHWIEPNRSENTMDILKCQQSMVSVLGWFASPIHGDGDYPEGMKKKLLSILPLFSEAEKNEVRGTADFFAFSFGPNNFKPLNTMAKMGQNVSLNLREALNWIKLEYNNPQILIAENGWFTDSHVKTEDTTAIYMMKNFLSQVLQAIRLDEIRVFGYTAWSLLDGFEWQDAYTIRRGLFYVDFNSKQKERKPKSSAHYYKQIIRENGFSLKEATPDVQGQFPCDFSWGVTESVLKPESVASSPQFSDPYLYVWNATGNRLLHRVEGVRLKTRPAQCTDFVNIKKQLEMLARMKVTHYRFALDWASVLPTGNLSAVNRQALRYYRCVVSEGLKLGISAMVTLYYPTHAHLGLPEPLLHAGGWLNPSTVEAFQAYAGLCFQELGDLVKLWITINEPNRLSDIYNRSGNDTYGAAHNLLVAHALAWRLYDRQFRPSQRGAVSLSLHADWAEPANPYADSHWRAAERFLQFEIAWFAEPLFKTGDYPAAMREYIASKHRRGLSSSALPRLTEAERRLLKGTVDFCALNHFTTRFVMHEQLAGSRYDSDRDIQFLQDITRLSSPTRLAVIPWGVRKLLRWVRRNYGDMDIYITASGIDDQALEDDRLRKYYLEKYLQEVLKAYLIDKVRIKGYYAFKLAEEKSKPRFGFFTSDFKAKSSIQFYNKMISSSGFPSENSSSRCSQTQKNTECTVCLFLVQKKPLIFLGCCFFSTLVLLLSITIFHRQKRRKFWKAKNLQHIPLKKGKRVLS
Assay: flow cytometry on CHOK1-cynoKLB cells
Protocol: The binding ability of the antibodies for CHOK1 cell strains CHOK1-hKLB and CHOK1-cynoKLB overexpressing human KLB and monkey KLB (see Example 1 for specific preparation procedure), respectively, was detected by flow cytometry. The specific procedure was as follows: the above cells were cultured in 10% FBS-containing IMDM medium and incubated in an incubator at 37° C. and 5% CO₂ for 2 days. The cells were then added to a cell plate at 1×10⁵ cells per well, centrifuged at 300 g for 5 min, and then washed once with 1% BSA. The antibody diluted in gradient was added to the cell plate at 100 μL per well, and the mixture was incubated at 4° C. for 1 h and washed once with 1% BSA. The diluted (1:400) APC-goat anti-human IgG Fc fluorescent secondary antibody was added at 100 μL per well, and the resulting mixture was incubated at 4° C. for 1 h. The plate was washed three times with 1% BSA, PBS was added at 100 μL per well, and the plate was read.

Question: How did the EC50 turn out when B1 was run?
Answer: 0.27 nM

Question: Which EC50 does the source give for B2 here?
Answer: 0.13 nM

Question: For B3, which EC50 is on record?
Answer: 1.9 nM
